Results as given in patent EP4786492A1.
Where a chain is given by its changes, count along the chain named.

B1: Hab015VL4VH1a-hFc (scFv, part only; not given: scFv linker and human IgG1 Fc, V domains shown, not shown: another chain or arm of the molecule; a dimerising Fc or GST; small tags and cut ends)
VL: NIVLTQSPATLSLSPGERATLSCKASENVGTYVSWFQQKPGQSPRLLIYGASNRYTGIPARFSGSGSGTDFTLTISSLEPEDFAVYYCGQFYSFPSTFGGGTKVEIK
VH: EVQLVESGGGLVKPGGSLRLSCAASGITFSNFWMNWVRQAPGKGLEWVGQIRLKSDDYATHYAESVKGRFTISREDSKNTVYLQMNSLKTEDTAVYYCTTGYYFDYWGQGTTVTVSS
B2: Hab015VL5VH1a-hFc (scFv, part only; not given: scFv linker and human IgG1 Fc, V domains shown, not shown: another chain or arm of the molecule; a dimerising Fc or GST; small tags and cut ends)
VL: NIQMTQSPSSLSASVGDRVTITCKASENVGTYVSWYQQKPGKSPKLLIYGASNRYTGVPSRFSGSGSGTDFTLTISSLQPEDFATYYCGQFYSFPSTFGGGTKVEIK
VH: B1 VH
B3: Hab015VL4VH5a-hFc (scFv, part only; not given: VL-VH linker and human IgG1 Fc, V domains shown, not shown: another chain or arm of the molecule; a dimerising Fc or GST; small tags and cut ends)
VL: B1 VL
VH: B1 VH with A23V

What follows are binders tested against human DLL3 protein expressed on CHO-K1 recombinant cells (human DLL3 extracellular segment fused to EpCAM transmembrane and intracellular regions) (human) (UniProt Q9NYJ7) (assay: FACS, CHO-K1 hDLL3 cells, 0.16 nM antibody).
Chain of human DLL3 protein expressed on CHO-K1 recombinant cells (human DLL3 extracellular segment fused to EpCAM transmembrane and intracellular regions) (human) (Q9NYJ7 other isoform, or with tags, fused parts or gaps limits assumed): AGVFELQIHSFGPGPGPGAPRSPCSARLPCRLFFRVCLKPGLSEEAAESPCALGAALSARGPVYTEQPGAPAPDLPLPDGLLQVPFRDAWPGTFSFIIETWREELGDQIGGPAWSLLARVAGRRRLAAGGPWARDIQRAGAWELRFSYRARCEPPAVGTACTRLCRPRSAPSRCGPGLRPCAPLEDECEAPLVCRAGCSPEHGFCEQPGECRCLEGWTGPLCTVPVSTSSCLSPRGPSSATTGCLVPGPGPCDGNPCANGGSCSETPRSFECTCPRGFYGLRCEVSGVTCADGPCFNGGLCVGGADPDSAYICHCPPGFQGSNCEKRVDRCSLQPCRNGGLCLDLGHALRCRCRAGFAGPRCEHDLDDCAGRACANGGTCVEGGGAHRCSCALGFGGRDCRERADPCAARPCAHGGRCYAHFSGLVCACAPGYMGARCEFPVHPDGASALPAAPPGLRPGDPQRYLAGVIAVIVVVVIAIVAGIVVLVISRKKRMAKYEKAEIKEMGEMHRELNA
B1 gave an MFI of 941 MFI. B2 was tested, and the MFI was 936 MFI. B3 was tested, and the MFI was 870 MFI.

These binders were tested against monkey DLL3 on CHO-K1-cyno DLL3 cells (cynomolgus monkey) (assay: FACS, CHO-K1-cyno DLL3 cells, 0.032 nM antibody).
Chain of monkey DLL3 on CHO-K1-cyno DLL3 cells (cynomolgus monkey) (chain, as listed by the source limits assumed): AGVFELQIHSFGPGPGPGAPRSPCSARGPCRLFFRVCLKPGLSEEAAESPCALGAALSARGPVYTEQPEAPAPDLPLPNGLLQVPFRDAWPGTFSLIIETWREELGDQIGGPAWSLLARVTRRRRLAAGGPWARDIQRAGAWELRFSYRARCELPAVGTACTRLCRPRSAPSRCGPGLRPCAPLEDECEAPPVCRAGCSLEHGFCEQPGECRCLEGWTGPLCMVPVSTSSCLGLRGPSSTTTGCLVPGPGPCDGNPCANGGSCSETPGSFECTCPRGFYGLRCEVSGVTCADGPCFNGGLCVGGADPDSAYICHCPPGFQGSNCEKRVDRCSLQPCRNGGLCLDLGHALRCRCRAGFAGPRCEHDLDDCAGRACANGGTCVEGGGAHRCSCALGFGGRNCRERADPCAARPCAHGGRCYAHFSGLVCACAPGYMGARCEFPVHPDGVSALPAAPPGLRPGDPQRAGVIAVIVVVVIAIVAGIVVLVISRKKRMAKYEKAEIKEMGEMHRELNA
For B1, the MFI was 399 MFI. Work on B2 yielded an MFI of 415 MFI. In the case of B3, the MFI is reported as 377 MFI.

What follows are binders tested against monkey DLL3 on CHO-K1-cyno DLL3 cells (cynomolgus monkey) (assay: FACS, CHO-K1-cyno DLL3 cells, 0.16 nM antibody).
B1 was tested, and the MFI was 1240 MFI. For B2, the MFI was 1190 MFI. In the case of B3, the MFI is reported as 1180 MFI.

These binders were tested against human DLL3 protein expressed on CHO-K1 recombinant cells (human DLL3 extracellular segment fused to EpCAM transmembrane and intracellular regions) (human) (UniProt Q9NYJ7) (assay: FACS, CHO-K1 hDLL3 cells, 100 nM antibody).
Binder B1 has an MFI of 11400 MFI. B2 was tested, and the MFI was 12000 MFI. Work on B3 yielded an MFI of 12400 MFI.

Each binder was assayed against mouse DLL3 on CHO-K1-mDLL3 cells (mouse) (UniProt O88516) (assay: FACS, CHO-K1-mDLL3 cells, 4 nM antibody).
Chain of mouse DLL3 on CHO-K1-mDLL3 cells (mouse) (O88516 other isoform, or with tags, fused parts or gaps limits assumed): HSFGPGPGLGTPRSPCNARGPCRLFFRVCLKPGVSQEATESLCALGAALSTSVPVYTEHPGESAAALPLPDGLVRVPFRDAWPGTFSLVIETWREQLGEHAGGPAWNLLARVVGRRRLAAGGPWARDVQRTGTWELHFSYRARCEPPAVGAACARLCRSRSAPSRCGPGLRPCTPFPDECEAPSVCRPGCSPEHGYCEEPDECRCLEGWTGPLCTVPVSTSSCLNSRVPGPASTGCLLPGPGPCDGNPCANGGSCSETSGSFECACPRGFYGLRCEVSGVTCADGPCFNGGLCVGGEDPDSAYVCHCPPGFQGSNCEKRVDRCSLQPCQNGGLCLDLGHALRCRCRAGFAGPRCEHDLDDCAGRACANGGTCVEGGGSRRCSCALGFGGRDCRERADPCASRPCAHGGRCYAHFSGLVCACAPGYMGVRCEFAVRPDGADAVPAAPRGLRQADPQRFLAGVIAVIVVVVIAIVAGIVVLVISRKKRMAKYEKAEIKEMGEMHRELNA
B1 showed an MFI of 1040 MFI. Work on B2 yielded an MFI of 1200 MFI. B3 was tested, and the MFI was 1210 MFI.

The binders below were run against mouse DLL3 on CHO-K1-mDLL3 cells (mouse) (UniProt O88516) (assay: FACS, CHO-K1-mDLL3 cells, 0.8 nM antibody).
B1 gave an MFI of 779 MFI. Binder B2 has an MFI of 922 MFI. Work on B3 yielded an MFI of 875 MFI.

These binders were tested against mouse DLL3 on CHO-K1-mDLL3 cells (mouse) (UniProt O88516) (assay: FACS, CHO-K1-mDLL3 cells, 20 nM antibody).
Binder B1 has an MFI of 1150 MFI. For B2, the MFI was 1290 MFI. With B3 the MFI was 1420 MFI.

These binders were tested against monkey DLL3 on CHO-K1-cyno DLL3 cells (cynomolgus monkey) (assay: FACS, CHO-K1-cyno DLL3 cells, 100 nM antibody).
B1 showed an MFI of 7590 MFI. B2 showed an MFI of 7380 MFI. Work on B3 yielded an MFI of 7610 MFI.

The binders below were run against mouse DLL3 on CHO-K1-mDLL3 cells (mouse) (UniProt O88516) (assay: FACS, CHO-K1-mDLL3 cells, 0.16 nM antibody).
B1 gave an MFI of 339 MFI. B2 gave an MFI of 393 MFI. Binder B3 has an MFI of 350 MFI.

What follows are binders tested against DLL3 endogenously expressed on NCI-H82 cells (UniProt Q9NYJ7) (assay: FACS on NCI-H82 cells; antibody 0.032 nM).
Chain of DLL3 endogenously expressed on NCI-H82 cells (Q9NYJ7 27-618): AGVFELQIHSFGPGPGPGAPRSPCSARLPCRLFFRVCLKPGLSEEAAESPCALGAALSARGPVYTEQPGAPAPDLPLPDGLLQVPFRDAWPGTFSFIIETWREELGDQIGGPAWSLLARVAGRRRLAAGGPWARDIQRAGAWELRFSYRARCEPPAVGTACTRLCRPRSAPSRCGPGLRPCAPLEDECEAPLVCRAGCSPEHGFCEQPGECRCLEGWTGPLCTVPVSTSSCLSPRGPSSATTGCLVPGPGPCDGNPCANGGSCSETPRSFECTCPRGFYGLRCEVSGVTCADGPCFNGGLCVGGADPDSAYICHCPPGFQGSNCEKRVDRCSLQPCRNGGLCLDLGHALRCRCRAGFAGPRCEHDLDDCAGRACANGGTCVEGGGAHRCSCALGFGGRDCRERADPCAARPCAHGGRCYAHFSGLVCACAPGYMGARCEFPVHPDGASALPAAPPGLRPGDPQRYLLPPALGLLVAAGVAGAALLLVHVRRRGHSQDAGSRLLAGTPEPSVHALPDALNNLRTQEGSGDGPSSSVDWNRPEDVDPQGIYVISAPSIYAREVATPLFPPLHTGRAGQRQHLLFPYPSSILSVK
With B1 the MFI was 213. B2 was tested, and the MFI was 219. Work on B3 yielded an MFI of 212.

Each binder was assayed against DLL3 endogenously expressed on NCI-H82 cells (UniProt Q9NYJ7) (assay: FACS on NCI-H82 cells; antibody 0.16 nM).
Binder B1 has an MFI of 489. Binder B2 has an MFI of 478. With B3 the MFI was 476.

The binders below were run against monkey DLL3 on CHO-K1-cyno DLL3 cells (cynomolgus monkey) (assay: FACS, CHO-K1-cyno DLL3 cells, 0.00128 nM antibody).
Binder B1 has an MFI of 123 MFI. B2 showed an MFI of 131 MFI. B3 gave an MFI of 122 MFI.

These binders were tested against monkey DLL3 on CHO-K1-cyno DLL3 cells (cynomolgus monkey) (assay: FACS, CHO-K1-cyno DLL3 cells, 0.8 nM antibody).
Work on B1 yielded an MFI of 4470 MFI. With B2 the MFI was 4340 MFI. B3 gave an MFI of 4480 MFI.

These binders were tested against human DLL3 protein expressed on CHO-K1 recombinant cells (human DLL3 extracellular segment fused to EpCAM transmembrane and intracellular regions) (human) (UniProt Q9NYJ7) (assay: FACS, CHO-K1 hDLL3 cells, 0.032 nM antibody).
B1 was tested, and the MFI was 294 MFI. Work on B2 yielded an MFI of 330 MFI. B3 showed an MFI of 283 MFI.

The binders below were run against human DLL4 protein (Acro, Cat. No. DL4-H5227) (human) (UniProt Q9NR61) (assay: ELISA, coated hDLL4; maximum over 0.1, 1, 10, 100 nM antibody).
Chain of human DLL4 protein (Acro, Cat. No. DL4-H5227) (human) (Q9NR61 27-524 limits assumed): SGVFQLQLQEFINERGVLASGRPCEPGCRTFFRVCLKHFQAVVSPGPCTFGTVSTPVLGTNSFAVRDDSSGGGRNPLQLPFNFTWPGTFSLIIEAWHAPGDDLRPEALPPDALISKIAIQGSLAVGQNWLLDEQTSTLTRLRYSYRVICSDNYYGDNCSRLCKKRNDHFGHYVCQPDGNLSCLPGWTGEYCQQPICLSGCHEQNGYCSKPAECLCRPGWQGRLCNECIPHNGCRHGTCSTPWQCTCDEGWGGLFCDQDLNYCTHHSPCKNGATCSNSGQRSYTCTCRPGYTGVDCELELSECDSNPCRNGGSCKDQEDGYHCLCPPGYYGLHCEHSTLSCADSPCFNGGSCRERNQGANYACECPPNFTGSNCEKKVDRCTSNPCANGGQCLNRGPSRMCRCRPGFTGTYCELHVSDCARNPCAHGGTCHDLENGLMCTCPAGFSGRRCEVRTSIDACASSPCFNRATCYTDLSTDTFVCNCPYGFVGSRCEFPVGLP
For B1, the Emax of OD450 nm binding value was 0.65 OD450 nm. B2 gave an Emax of OD450 nm binding value of 0.71 OD450 nm. B3 showed an Emax of OD450 nm binding value of 0.71 OD450 nm.

What follows are binders tested against mouse DLL3 on CHO-K1-mDLL3 cells (mouse) (UniProt O88516) (assay: FACS, CHO-K1-mDLL3 cells, 0.032 nM antibody).
For B1, the MFI was 172 MFI. B2 gave an MFI of 195 MFI. B3 showed an MFI of 170 MFI.

The binders below were run against human DLL1 protein (Acro, Cat. No. DL1-H52H8) (human) (UniProt O00548) (assay: ELISA, coated hDLL1; maximum over 0.1, 1, 10, 100 nM antibody).
Chain of human DLL1 protein (Acro, Cat. No. DL1-H52H8) (human) (O00548 18-540 limits assumed): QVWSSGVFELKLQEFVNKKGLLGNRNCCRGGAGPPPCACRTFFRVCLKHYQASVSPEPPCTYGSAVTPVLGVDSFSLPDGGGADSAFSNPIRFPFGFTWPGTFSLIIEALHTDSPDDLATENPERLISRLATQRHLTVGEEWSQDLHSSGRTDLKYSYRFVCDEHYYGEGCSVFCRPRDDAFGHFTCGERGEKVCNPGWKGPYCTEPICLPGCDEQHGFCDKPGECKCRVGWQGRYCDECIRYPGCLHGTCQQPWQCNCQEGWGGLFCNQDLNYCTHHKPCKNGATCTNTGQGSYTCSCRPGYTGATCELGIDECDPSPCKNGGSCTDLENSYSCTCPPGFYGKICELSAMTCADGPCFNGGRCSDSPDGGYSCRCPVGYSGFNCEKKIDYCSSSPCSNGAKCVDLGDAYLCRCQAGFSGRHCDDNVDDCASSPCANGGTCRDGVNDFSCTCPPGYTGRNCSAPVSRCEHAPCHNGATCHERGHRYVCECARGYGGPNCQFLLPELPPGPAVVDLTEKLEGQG
Work on B1 yielded an Emax of OD450 nm binding value of 0.44 OD450 nm. Binder B2 has an Emax of OD450 nm binding value of 0.47 OD450 nm. With B3 the Emax of OD450 nm binding value was 0.42 OD450 nm.

Each binder was assayed against DLL3 endogenously expressed on NCI-H82 cells (UniProt Q9NYJ7) (assay: FACS on NCI-H82 cells; antibody 0.00128 nM).
B1 was tested, and the MFI was 118. Binder B2 has an MFI of 118. With B3 the MFI was 118.

The binders below were run against human DLL3 protein expressed on CHO-K1 recombinant cells (human DLL3 extracellular segment fused to EpCAM transmembrane and intracellular regions) (human) (UniProt Q9NYJ7) (assay: FACS, CHO-K1 hDLL3 cells, 20 nM antibody).
With B1 the MFI was 10600 MFI. Work on B2 yielded an MFI of 11800 MFI. B3 gave an MFI of 12000 MFI.

Each binder was assayed against human DLL3 protein expressed on CHO-K1 recombinant cells (human DLL3 extracellular segment fused to EpCAM transmembrane and intracellular regions) (human) (UniProt Q9NYJ7) (assay: FACS, CHO-K1 hDLL3 cells, 0.00128 nM antibody).
For B1, the MFI was 122 MFI. Work on B2 yielded an MFI of 129 MFI. B3 showed an MFI of 122 MFI.

These binders were tested against DLL3 endogenously expressed on NCI-H82 cells (UniProt Q9NYJ7) (assay: FACS on NCI-H82 cells; antibody 100 nM).
For B1, the MFI was 1520. With B2 the MFI was 1220. Work on B3 yielded an MFI of 1510.

What follows are binders tested against DLL3 endogenously expressed on NCI-H82 cells (UniProt Q9NYJ7) (assay: FACS on NCI-H82 cells; antibody 0.8 nM).
Binder B1 has an MFI of 993. Binder B2 has an MFI of 811. With B3 the MFI was 942.

What follows are binders tested against monkey DLL3 on CHO-K1-cyno DLL3 cells (cynomolgus monkey) (assay: FACS, CHO-K1-cyno DLL3 cells, 20 nM antibody).
B1 showed an MFI of 6720 MFI. B2 was tested, and the MFI was 7040 MFI. Binder B3 has an MFI of 7180 MFI.

Each binder was assayed against human DLL3 protein expressed on CHO-K1 recombinant cells (human DLL3 extracellular segment fused to EpCAM transmembrane and intracellular regions) (human) (UniProt Q9NYJ7) (assay: FACS, CHO-K1 hDLL3 cells, 0.0064 nM antibody).
B1 showed an MFI of 152 MFI. For B2, the MFI was 160 MFI. For B3, the MFI was 150 MFI.

These binders were tested against human delta-like ligand 3 (DLL3) on SHP77 cells (human) (UniProt Q9NYJ7) (assay: FACS on SHP77 cells).
Chain of human delta-like ligand 3 (DLL3) on SHP77 cells (human) (Q9NYJ7 27-618, stated change not applied): as the sequence (Q9NYJ7 27-618) above
In the case of B1, the MFI at 0.00128 nM is reported as 99 MFI, the MFI at 0.0064 nM is reported as 112 MFI and the MFI at 0.032 nM is reported as 174 MFI. It also gave an MFI at 0.16 nM of 385 MFI, an MFI at 0.8 nM of 730 MFI and an MFI at 4 nM of 762 MFI. It also gave an MFI at 20 nM of 962 MFI and an MFI at 100 nM of 1240 MFI. B2 was tested, and the MFI at 0.00128 nM was 102 MFI, the MFI at 0.0064 nM was 122 MFI and the MFI at 0.032 nM was 185 MFI. The MFI at 0.16 nM was 343 MFI, the MFI at 0.8 nM was 612 MFI and the MFI at 4 nM was 768 MFI. It also gave an MFI at 20 nM of 907 MFI and an MFI at 100 nM of 1140 MFI. B3 gave an MFI at 0.00128 nM of 100 MFI, an MFI at 0.0064 nM of 117 MFI and an MFI at 0.032 nM of 179 MFI. It also gave an MFI at 0.16 nM of 368 MFI, an MFI at 0.8 nM of 709 MFI and an MFI at 4 nM of 812 MFI. For the same binder, the MFI at 20 nM was 997 MFI and the MFI at 100 nM was 1250 MFI.

These binders were tested against DLL3 endogenously expressed on NCI-H82 cells (UniProt Q9NYJ7) (assay: FACS on NCI-H82 cells; antibody 0.0064 nM).
With B1 the MFI was 137. For B2, the MFI was 137. With B3 the MFI was 135.

Each binder was assayed against human DLL3 protein expressed on CHO-K1 recombinant cells (human DLL3 extracellular segment fused to EpCAM transmembrane and intracellular regions) (human) (UniProt Q9NYJ7) (assay: FACS, CHO-K1 hDLL3 cells, 4 nM antibody).
With B1 the MFI was 7920 MFI. Work on B2 yielded an MFI of 10600 MFI. For B3, the MFI was 10900 MFI.

These binders were tested against monkey DLL3 on CHO-K1-cyno DLL3 cells (cynomolgus monkey) (assay: FACS, CHO-K1-cyno DLL3 cells, 4 nM antibody).
B1 showed an MFI of 5910 MFI. In the case of B2, the MFI is reported as 6660 MFI. With B3 the MFI was 6520 MFI.

What follows are binders tested against DLL3 endogenously expressed on NCI-H82 cells (UniProt Q9NYJ7) (assay: FACS on NCI-H82 cells; antibody 20 nM).
With B1 the MFI was 1200. B2 gave an MFI of 1100. B3 was tested, and the MFI was 1190.

What follows are binders tested against monkey DLL3 on CHO-K1-cyno DLL3 cells (cynomolgus monkey) (assay: FACS, CHO-K1-cyno DLL3 cells, 0.0064 nM antibody).
For B1, the MFI was 168 MFI. With B2 the MFI was 178 MFI. B3 was tested, and the MFI was 164 MFI.

Each binder was assayed against mouse DLL3 on CHO-K1-mDLL3 cells (mouse) (UniProt O88516) (assay: FACS, CHO-K1-mDLL3 cells, 0.0064 nM antibody).
B1 gave an MFI of 123 MFI. For B2, the MFI was 131 MFI. With B3 the MFI was 126 MFI.

The binders below were run against human DLL3 protein expressed on CHO-K1 recombinant cells (human DLL3 extracellular segment fused to EpCAM transmembrane and intracellular regions) (human) (UniProt Q9NYJ7) (assay: FACS, CHO-K1 hDLL3 cells, 0.8 nM antibody).
For B1, the MFI was 5070 MFI. For B2, the MFI was 4310 MFI. For B3, the MFI was 4390 MFI.

What follows are binders tested against mouse DLL3 on CHO-K1-mDLL3 cells (mouse) (UniProt O88516) (assay: FACS, CHO-K1-mDLL3 cells, 0.00128 nM antibody).
Binder B1 has an MFI of 117 MFI. With B2 the MFI was 121 MFI. B3 was tested, and the MFI was 117 MFI.

Each binder was assayed against mouse DLL3 on CHO-K1-mDLL3 cells (mouse) (UniProt O88516) (assay: FACS, CHO-K1-mDLL3 cells, 100 nM antibody).
Work on B1 yielded an MFI of 1450 MFI. Work on B2 yielded an MFI of 1550 MFI. B3 showed an MFI of 1530 MFI.

The binders below were run against DLL3 endogenously expressed on NCI-H82 cells (UniProt Q9NYJ7) (assay: FACS on NCI-H82 cells; antibody 4 nM).
Work on B1 yielded an MFI of 1060. B2 was tested, and the MFI was 867. For B3, the MFI was 1030.
